B1: CD33/CD16A/IL-15 trifunctional fusion protein QP42914285 (FC with L234A/L235A mutation for eliminating function) (bispecific antibody)
light: SYVLTQPSSVSVAPGQTATISCGGHNIGSKNVHWYQQRPGQSPVLVIYQDNKRPSGIPERFSGSNSGNTATLTISGTQAMDEADYYCQVWDNYSVLFGGGTKLTVLRTVAAPSVFIFPPSDEQLKSGTASVVCLLNNFYPREAKVQWKVDNALQSGNSQESVTEQDSKDSTYSLSSTLTLSKADYEKHKVYACEVTHQGLSSPVTKSFNRGEC
heavy: QVQLVQSGAEVKKPGESLKVSCKASGYTFTSYYMHWVRQAPGQGLEWMGIINPSGGSTSYAQKFQGRVTMTRDTSTSTVYMELSSLRSEDTAVYYCARGSAYYYDFADYWGQGTLVTVSSASTKGPSVFPLAPSSKSTSGGTAALGCLVKDYFPEPVTVSWNSGALTSGVHTFPAVLQSSGLYSLSSVVTVPSSSLGTQTYICNVNHKPSNTKVDKKVEPKSCDKTHTCPPCPAPEAAGGPSVFLFPPKPKDTLMISRTPEVTCVVVDVSHEDPEVKFNWYVDGVEVHNAKTKPREEQYNSTYRVVSVLTVLHQDWLNGKEYKCKVSNKALPAPIEKTISKAKGQPREPQVYTLPPSREEMTKNQVSLSCAVKGFYPSDIAVEWESNGQPENNYKTTPPVLDSDGSFFLVSKLTVDKSRWQQGNVFSCSVMHEALHNRYTQKSLSLSPGKGGSHHHHHH
chain 1: not shown
chain 2: not shown
notes: Four-chain heterodimer: anti-CD16A Fab arm and anti-CD33 Fv-IL-15/IL-15Ra arm
B2: CD33/CD16A/IL-15 trifunctional fusion protein QP743745 (FC wild-type) (bispecific antibody)
chain 1: not shown
chain 2: not shown
light: DIVMTQSPDSLTVSLGERTTINCKSSQSVLDSSTNKNSLAWYQQKPGQPPKLLLSWASTRESGIPDRFSGSGSGTDFTLTIDSPQPEDSATYYCQQSAHFPITFGQGTRLEIKRTVAAPSVFIFPPSDEQLKSGTASVVCLLNNFYPREAKVQWKVDNALQSGNSQESVTEQDSKDSTYSLSSTLTLSKADYEKHKVYACEVTHQGLSSPVTKSFNRGEC
heavy: QVQLVQSGAEVKKPGESVKVSCKASGYTFTNYGMNWVKQAPGQGLEWMGWINTYTGEPTYADKFQGRVTMTTDTSTSTAYMEIRNLGGDDTAVYYCARWSWSDGYYVYFDYWGQGTSVTVSSASTKGPSVFPLAPSSKSTSGGTAALGCLVKDYFPEPVTVSWNSGALTSGVHTFPAVLQSSGLYSLSSVVTVPSSSLGTQTYICNVNHKPSNTKVDKKVEPKSCDKTHTCPPCPAPELLGGPSVFLFPPKPKDTLMISRTPEVTCVVVDVSHEDPEVKFNWYVDGVEVHNAKTKPREEQYNSTYRVVSVLTVLHQDWLNGKEYKCKVSNKALPAPIEKTISKAKGQPREPQVYTLPPSREEMTKNQVSLSCAVKGFYPSDIAVEWESNGQPENNYKTTPPVLDSDGSFFLVSKLTVDKSRWQQGNVFSCSVMHEALHNRYTQKSLSLSPGK
B3: CD33/CD16A bispecific antibody QP4115777778 (FC wild-type) (bispecific antibody, human IgG1, kappa)
chain: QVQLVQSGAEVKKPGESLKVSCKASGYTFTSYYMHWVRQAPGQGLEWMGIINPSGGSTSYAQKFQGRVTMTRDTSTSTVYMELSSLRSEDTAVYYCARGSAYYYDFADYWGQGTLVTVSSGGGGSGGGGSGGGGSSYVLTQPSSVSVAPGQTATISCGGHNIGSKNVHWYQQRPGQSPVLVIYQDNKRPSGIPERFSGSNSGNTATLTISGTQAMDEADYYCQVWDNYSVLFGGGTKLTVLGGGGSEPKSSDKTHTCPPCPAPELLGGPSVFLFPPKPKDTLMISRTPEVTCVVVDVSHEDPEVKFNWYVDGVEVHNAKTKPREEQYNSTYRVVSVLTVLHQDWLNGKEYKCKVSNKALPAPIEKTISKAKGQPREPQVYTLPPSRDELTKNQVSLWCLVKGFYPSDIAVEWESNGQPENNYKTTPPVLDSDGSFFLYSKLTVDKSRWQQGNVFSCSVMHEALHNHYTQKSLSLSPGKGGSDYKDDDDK
heavy: QVQLVQSGAEVKKPGESVKVSCKASGYTFTNYGMNWVKQAPGQGLEWMGWINTYTGEPTYADKFQGRVTMTTDTSTSTAYMEIRNLGGDDTAVYYCARWSWSDGYYVYFDYWGQGTSVTVSSASTKGPSVFPLAPSSKSTSGGTAALGCLVKDYFPEPVTVSWNSGALTSGVHTFPAVLQSSGLYSLSSVVTVPSSSLGTQTYICNVNHKPSNTKVDKKVEPKSCDKTHTCPPCPAPELLGGPSVFLFPPKPKDTLMISRTPEVTCVVVDVSHEDPEVKFNWYVDGVEVHNAKTKPREEQYNSTYRVVSVLTVLHQDWLNGKEYKCKVSNKALPAPIEKTISKAKGQPREPQVYTLPPSREEMTKNQVSLSCAVKGFYPSDIAVEWESNGQPENNYKTTPPVLDSDGSFFLVSKLTVDKSRWQQGNVFSCSVMHEALHNRYTQKSLSLSPGKGGSHHHHHH
light: B2 light
notes: also called QP411577778; CD16A/CD33 bispecific antibody
B4: CD33/CD16A/IL-15 trifunctional fusion protein QP43394340 (FC with L234A/L235A mutation for eliminating function) (bispecific antibody)
chain 1: not shown
chain 2: not shown
light: B2 light
heavy: B2 heavy with L239A, L240A
notes: Four-chain heterodimer, hIgG1 Fc LALA; plasmid names mention Flag and His tags
B5: CD33 antibody IgG1 wt subtype QP41154116 (antibody, V domains shown)
VH: QVQLVQSGAEVKKPGESVKVSCKASGYTFTNYGMNWVKQAPGQGLEWMGWINTYTGEPTYADKFQGRVTMTTDTSTSTAYMEIRNLGGDDTAVYYCARWSWSDGYYVYFDYWGQGTSVTVSS
VL: DIVMTQSPDSLTVSLGERTTINCKSSQSVLDSSTNKNSLAWYQQKPGQPPKLLLSWASTRESGIPDRFSGSGSGTDFTLTIDSPQPEDSATYYCQQSAHFPITFGQGTRLEIKR
notes: IgG1 wild-type control antibody; also called antiCD33 antibody

Results on five molecules are retold here after patent US20240383985A1 (QURE BIOTECHNOLOGY SHANGHAI, published 2024).

Residue numbers refer to the chain shown, from its start. Names and notes keep the numbering of the source.

For the assay, the target named is T1, CD33 naturally expressed on HL60 cells (human, UniProt P20138 18-364).
T1 construct: whole, on cells
T1 sequence (P20138 18-364): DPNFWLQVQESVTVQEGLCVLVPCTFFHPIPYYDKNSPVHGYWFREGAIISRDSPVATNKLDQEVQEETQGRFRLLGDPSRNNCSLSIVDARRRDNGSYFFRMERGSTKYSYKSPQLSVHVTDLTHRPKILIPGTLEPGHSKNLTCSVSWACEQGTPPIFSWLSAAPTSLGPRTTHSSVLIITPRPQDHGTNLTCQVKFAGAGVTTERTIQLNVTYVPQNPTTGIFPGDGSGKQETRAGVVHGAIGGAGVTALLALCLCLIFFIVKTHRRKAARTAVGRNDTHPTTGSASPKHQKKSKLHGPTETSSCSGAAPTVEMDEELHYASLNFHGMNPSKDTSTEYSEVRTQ
As to the kind of experiment: flow cytometry on HL60 cells, PE-anti human Fc detection. As for the experimental part: Experimental method: HL60 cells were cultured in a 5% CO₂ incubator at 37° C. After trypsin digestion, cells were collected and inoculated into 96-well plates at 100,000 cells per well. Then the plate was subjected to blocking on ice for 1 hour with 2% FBS/PBS. The cells were incubated with different concentrations of trifunctional proteins and control protein on ice for 1 hour, washed with PBS for 3 times, and incubated with PE-anti human Fc (1:200 dilution). The cells were washed with PBS for 3 times, and resuspended with 200 μl PBS. The mean fluorescence value was read by FACS and Graphpad prism software was used to analyze the results.
On the technique in general: In flow cytometry, cells or beads pass a laser one at a time.
For the molecule B1, the binding result was “binds”.
As to B2, the binding result was “binds”.
With B3, the binding result is reported as “binds”.
With B4, the binding result is “binds”.
Consider B5, for which the binding result is given as “binds”.
